Source: paper PMC10724965, “FRIZZLE PANICLE (FZP) regulates rice spikelets development through modulating cytokinin metabolism”

Molecular target: MBP-FZP (Oryza sativa, UniProt Q8H3Q1 1-318)
Experiment: EMSA; 5 nmol protein, 2 nmol probe (so in the source); shift substantially weakened by excess unlabeled probe; EMSA: 10 uL, 2 uL 5x EMSA/Gel-shift binding buffer (Beyotime?), 5 nmol protein, 2 nmol biotin-labeled probe; salt, pH and temperature not given
Settings: protein: recombinant; tags: MBP (pMAL-c2x); label: biotin; blunt

Chain of MBP-FZP (Q8H3Q1 whole entry): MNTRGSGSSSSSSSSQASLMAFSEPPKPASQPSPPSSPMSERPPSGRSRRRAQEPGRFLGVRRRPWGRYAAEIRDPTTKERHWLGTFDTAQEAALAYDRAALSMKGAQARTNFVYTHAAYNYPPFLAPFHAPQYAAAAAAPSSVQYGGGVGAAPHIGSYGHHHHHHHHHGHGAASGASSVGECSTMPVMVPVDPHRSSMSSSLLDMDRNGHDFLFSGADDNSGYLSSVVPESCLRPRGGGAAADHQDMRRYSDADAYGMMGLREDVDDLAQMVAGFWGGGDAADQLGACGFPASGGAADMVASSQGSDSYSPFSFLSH

B1: EMSA-DST-probe (GCC-box, DST promoter) (dsDNA)
DNA 1: GCACAAGACCCGCAGGCCCAATGGCGAGCCGCCACGTGTACCCGCGCCTCCCCTCCCCGGCC
DNA 2: GGCCGGGGAGGGGAGGCGCGGGTACACGTGGCGGCTCGCCATTGGGCCTGCGGGTCTTGTGC
**Q.** Does B1 bind?
**A.** binds
